The text below walks through data of patent US20190134196A1 (GMAX BIOPHARM, published 2019).

Substitutions are numbered along the chain they refer to.

Test [1] deals with T1, human endothelin A receptor (human, UniProt P25101 21-427).
T1 sequence: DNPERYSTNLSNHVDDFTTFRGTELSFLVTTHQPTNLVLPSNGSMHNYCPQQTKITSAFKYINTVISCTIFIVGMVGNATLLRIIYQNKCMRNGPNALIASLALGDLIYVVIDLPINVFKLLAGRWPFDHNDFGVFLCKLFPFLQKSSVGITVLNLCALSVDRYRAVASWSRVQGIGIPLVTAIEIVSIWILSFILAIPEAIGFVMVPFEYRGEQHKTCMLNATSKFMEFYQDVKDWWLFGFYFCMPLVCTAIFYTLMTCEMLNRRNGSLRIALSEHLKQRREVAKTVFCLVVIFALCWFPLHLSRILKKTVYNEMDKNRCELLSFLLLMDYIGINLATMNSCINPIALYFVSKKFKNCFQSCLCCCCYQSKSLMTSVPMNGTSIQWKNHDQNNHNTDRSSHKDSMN
The test can be described thus: cell-based or functional assay.

Test [2] deals with T1, human endothelin A receptor. Briefly: FACS on CHO-DHFR-ETAR cells, CHO-DHFR- cells as negative control.

B1: ETAR antibody A-9 (antibody, V domains shown)
VH: EVQLQQPGGGLVQPGGSLTLSCATSGFTFSSYGMSWVRQTPAKRLELVATISTNGATANYPDSVKGRFTISRDNAKSTLYLQMRSLKSEDTAMYYCATEKGAMGYWGQGTSVTVSS
VL: DVLMTQTPLSLPVSLGDQASISCRSSQNIVHSTGNTYLEWYLQKPGQSPKLLIYKVSNRFSGVPNRFRGSGSGTDFTLKITRVEAEDLGIYYCFQGSHFPFTFGSGTKLEIKR
B1: in test [1], the “IC50, calcium flux assay (inhibition of human ETAR)” value was found to be 87.8 nM.

B2: ETAR antibody A-7 (antibody, V domains shown)
VH: EVHLVESGGGLVQPGGSLKLSCAASGFTFSTYGMSWVRQTPDKRLELVATINTNGGTTYYRDSVKGRFTISRDNAKNTLYLQMSSLKSDDTAMYYCARDYGAMDYWGQGTSVTVSS
VL: B1 VL with Q18H, N28Y, N35T, K50Q, N65D, R68T, K79R, T81S, I90V, Y92F
notes: Recombinant antibody; also called L7H7
Consider B2, for which the binding result in test [2] was “binds”.

B3: ETAR antibody A-12 (antibody, V domains shown)
VH: EVKLVESGGRLVQPGNSLRLSCATSGFTFSDYYMSWVRQTPGRALEWLSFIRNRANGYTTEYSASVKGRFTISRDNSQSILYLHMSTLRPEDSATYYCVRDSYHYGYFDVWGAGTTVTVSS
VL: EIQMTQTPSSLSASLGDRVTITCSASQGINNYLNWYQQKPGGKTRLLIYYTSTLQSGVPSRFSGSGSGTHYSLTISNLEPEDIATYYCQQFSKLRTFGGGTRLEIKR
notes: Recombinant antibody; also called L12H12
Consider B3, for which, in test [2], the binding result is “binds”.

B4: ETAR antibody A-2 (antibody, V domains shown)
VH: QIQLVQSGAELAKPGASVRMSCETSGYTFTSYWIHWIKERPGQGLEWIGYINPDTDYSEYNQKFKDKARLTADKSSTTAYMELNSLTFDDSAVYYCASAGYYFFDFWGQGTTLTVSS
VL: DIQMTQSPASLSTSVGETVTITCRASENIYSYLAWYQQRQGKSPHLLVNNAKTLAEGVPSRFSGSGSGTHFSLRISGLQPEDFGSYYCQHHYGIPFTFGGGTKLSIKR
notes: Recombinant antibody; also called L2H2
Regarding B4, in test [2], the binding result is “binds”.
